To fix the notation:
B1: Kinesin-like protein KIF16B, residues 1213 to 1273; numbered along this chain, Q96L93 (parent)
chain: ETWTVFRRYSRFREMHKTLKLKYAELAALEFPPKKLFGNKDERVIAERRSHLEKYLRDFFS

± gives the uncertainty stated by the source.

This series covers variants of B1. Description: abundance fitness (aPCA) (normalised: wild type 0, dead -1); higher = more abundant; growth selection in yeast, the domain comes from the species named. As to conditions: Homo sapiens.
Turning to ETWTVFRRYSRFREMHKTLKLKYAELAALEFPPKKLFGNKLERVIAERRSHLEKYLRDFFS [D41L], the abundance fitness is 0.332 ± 0.044. Take ETWTVFRRYSRFREMHKTLKLKYAELAALEFPPKKLFGNKCERVIAERRSHLEKYLRDFFS [D41C]: the abundance fitness amounted to 0.101 ± 0.12. Consider ETWTVFRRYSRFREMHKTLKLKYAELAALEFPPKKLFGNKRERVIAERRSHLEKYLRDFFS [D41R], for which the abundance fitness is -0.184 ± 0.048. For the variant ETWTVFRRYSRFREMHKTLKLKYAELAALEFPPKKLFGNKGERVIAERRSHLEKYLRDFFS [D41G], the abundance fitness amounted to 0.038 ± 0.056. With ETWTVFRRYSRFREMHKTLKLKYAELAALEFPPKKLFGNKYERVIAERRSHLEKYLRDFFS [D41Y], the abundance fitness came out at 0.057 ± 0.11. On to ETWTVFRRYSRFREMHKTLKLKYAELAALEFPPKKLFGNKNERVIAERRSHLEKYLRDFFS [D41N], for which the abundance fitness turned out to be 0.08 ± 0.07. As to ETWTVFRRYSRFREMHKTLKLKYAELAALEFPPKKLFGNKEERVIAERRSHLEKYLRDFFS [D41E], the abundance fitness is -0.07 ± 0.076. For ETWTVFRRYSRFREMHKTLKLKYAELAALEFPPKKLFGNKDEQVIAERRSHLEKYLRDFFS [R43Q] the value was 0.003 ± 0.077. For ETWTVFRRYSRFREMHKTLKLKYAELAALEFPPKKLFGNKDECVIAERRSHLEKYLRDFFS [R43C] the value was -0.097 ± 0.33. On to ETWTVFRRYSRFREMHKTLKLKYAELAALEFPPKKLFGNKDEEVIAERRSHLEKYLRDFFS [R43E], for which the abundance fitness was -0.22 ± 0.1. For the variant ETWTVFRRYSRFREMHKTLKLKYAELAALEFPPKKLFGNKDEIVIAERRSHLEKYLRDFFS [R43I], the abundance fitness is -0.227 ± 0.23. On to ETWTVFRRYSRFREMHKTLKLKYAELAALEFPPKKLFGNKDEYVIAERRSHLEKYLRDFFS [R43Y], for which the abundance fitness is -0.489 ± 0.12. In the case of ETWTVFRRYSRFREMHKTLKLKYAELAALEFPPKKLFGNKDEHVIAERRSHLEKYLRDFFS [R43H], the abundance fitness was 0.129 ± 0.085. Take ETWTVFRRYSRFREMHKTLKLKYAELAALEFPPKKLFGNKDEGVIAERRSHLEKYLRDFFS [R43G]: the abundance fitness stood at 0.209 ± 0.047. On to ETWTVFRRYSRFREMHKTLKLKYAELAALEFPPKKLFGNKDEFVIAERRSHLEKYLRDFFS [R43F], for which the abundance fitness was -0.249 ± 0.45.

For the variant ETWTVFRRYSRFREMHKTLKLKYAELAALEFPPKKLFGNKDEKVIAERRSHLEKYLRDFFS [R43K], the abundance fitness was 0.017 ± 0.077. On to ETWTVFRRYSRFREMHKTLKLKYAELAALEFPPKKLFGNKDEMVIAERRSHLEKYLRDFFS [R43M], for which the abundance fitness was -0.32 ± 0.087.

Turning to ETWTVFRRYSRFREMHKTLKLKYAELAALEFPPKKLFGNKDEVVIAERRSHLEKYLRDFFS [R43V], the abundance fitness was -0.099 ± 0.049. For ETWTVFRRYSRFREMHKTLKLKYAELAALEFPPKKLFGNKDENVIAERRSHLEKYLRDFFS [R43N] the value was 0.137 ± 0.1. Turning to ETWTVFRRYSRFREMHKTLKLKYAELAALEFPPKKLFGNKDEDVIAERRSHLEKYLRDFFS [R43D], the abundance fitness is -0.31 ± 0.12. On to ETWTVFRRYSRFREMHKTLKLKYAELAALEFPPKKLFGNKDEPVIAERRSHLEKYLRDFFS [R43P], for which the abundance fitness is -0.004 ± 0.11. As to ETWTVFRRYSRFREMHKTLKLKYAELAALEFPPKKLFGNKDEAVIAERRSHLEKYLRDFFS [R43A], the abundance fitness came to 0.033 ± 0.052. Regarding ETWTVFRRYSRFREMHKTLKLKYAELAALEFPPKKLFGNKDEWVIAERRSHLEKYLRDFFS [R43W], the abundance fitness was -0.155 ± 0.076. Consider ETWTVFRRYSRFREMHKTLKLKYAELAALEFPPKKLFGNKDELVIAERRSHLEKYLRDFFS [R43L], for which the abundance fitness was -0.282 ± 0.065. As to ETWTVFRRYSRFREMHKTLKLKYAELAALEFPPKKLFGNKDETVIAERRSHLEKYLRDFFS [R43T], the abundance fitness was 0.018 ± 0.063. ETWTVFRRYSRFREMHKTLKLKYAELAALEFPPKKLFGNGDERVIAERRSHLEKYLRDFFS [K40G]: the abundance fitness is -0.269 ± 0.17. Consider ETWTVFRRYSRFREMHKTLKLKYAELAALEFPPKKLFGNQDERVIAERRSHLEKYLRDFFS [K40Q], for which the abundance fitness is -0.164 ± 0.36. With ETWTVFRRYSRFREMHKTLKLKYAELAALEFPPKKLFGNKDERVKAERRSHLEKYLRDFFS [I45K] the figure was 0.281 ± 0.053; with ETWTVFRRYSRFREMHKTLKLKYAELAALEFPPKKLFGNKDERVRAERRSHLEKYLRDFFS [I45R], 0.133 ± 0.039. With ETWTVFRRYSRFREMHKTLKLKYAELAALEFPPKKLFGNKDERVTAERRSHLEKYLRDFFS [I45T] the figure was 0.158 ± 0.043; with ETWTVFRRYSRFREMHKTLKLKYAELAALEFPPKKLFGNKDERVPAERRSHLEKYLRDFFS [I45P], 0.271 ± 0.048. For ETWTVFRRYSRFREMHKTLKLKYAELAALEFPPKKLFGNKDERVDAERRSHLEKYLRDFFS [I45D] the value was 0.057 ± 0.061; for ETWTVFRRYSRFREMHKTLKLKYAELAALEFPPKKLFGNKDERVMAERRSHLEKYLRDFFS [I45M], 0.062 ± 0.047; for ETWTVFRRYSRFREMHKTLKLKYAELAALEFPPKKLFGNKDERVCAERRSHLEKYLRDFFS [I45C], 0.133 ± 0.043. On to ETWTVFRRYSRFREMHKTLKLKYAELAALEFPPKKLFGNKDERVAAERRSHLEKYLRDFFS [I45A], for which the abundance fitness came to 0.177 ± 0.041. For ETWTVFRRYSRFREMHKTLKLKYAELAALEFPPKKLFGNKDERVWAERRSHLEKYLRDFFS [I45W], the abundance fitness turned out to be 0.35 ± 0.052. As for ETWTVFRRYSRFREMHKTLKLKYAELAALEFPPKKLFGNKDERVEAERRSHLEKYLRDFFS [I45E], the abundance fitness is 0.107 ± 0.071. Take ETWTVFRRYSRFREMHKTLKLKYAELAALEFPPKKLFGNKDERVHAERRSHLEKYLRDFFS [I45H]: the abundance fitness came out at 0.11 ± 0.062. As for ETWTVFRRYSRFREMHKTLKLKYAELAALEFPPKKLFGNKDERVFAERRSHLEKYLRDFFS [I45F], the abundance fitness was 0.158 ± 0.06. As for ETWTVFRRYSRFREMHKTLKLKYAELAALEFPPKKLFGNKDERVQAERRSHLEKYLRDFFS [I45Q], the abundance fitness amounted to 0.174 ± 0.046. For ETWTVFRRYSRFREMHKTLKLKYAELAALEFPPKKLFGNKDERVVAERRSHLEKYLRDFFS [I45V] the value was 0.009 ± 0.048. As to ETWTVFRRYSRFREMHKTLKLKYAELAALEFPPKKLFGNKDERVGAERRSHLEKYLRDFFS [I45G], the abundance fitness is 0.264 ± 0.043. Consider ETWTVFRRYSRFREMHKTLKLKYAELAALEFPPKKLFGNKDERVNAERRSHLEKYLRDFFS [I45N], for which the abundance fitness was determined as 0.031 ± 0.054. Turning to ETWTVFRRYSRFREMHKTLKLKYAELAALEFPPKKLFGNKDERVLAERRSHLEKYLRDFFS [I45L], the abundance fitness was found to be 0.051 ± 0.044.

Source of the values: the Human Domainome abundance scans (Beltran et al. 2025).
